As a reminder, the stoichiometry N is the number of molecules, sites or subunits per partner or assembly.

Experimental findings from article PMC3788124, “Crystal Structure of the Human Short Coiled Coil Protein and Insights into SCOC-FEZ1 Complex Formation” (PLoS ONE, 2013) are described below.

To fix the notation:
B1: Strep-tagged SCOC(78-159) E93V/K97L (domain or fragment, human)
chain: MAMMNADMDAVDAENQVVLEELTRLINQVLELQHTLEDLSARVDAVKEENLKLKSENQVLGQYIENLMSASSVFQTTDTKSKRKLVPRGS
notes: human SCOC, SwissProt entry Q9UIL1 isoform 1, residues 78-159, with E93V and K97L; linker between SCOC and the Strep-tag, as in the wild-type construct; Trimer by SEC-MALLS and native MS; also called trimeric SCOC mutant; double core mutant E93V/K97L; source: E. coli BL21 (DE3), purified (StrepTrap, Superdex 75); also co-expressed with FEZ1(227-290) in E. coli
B2: Strep-tagged SCOC(78-159) N125L/N132V (domain or fragment)
chain: not shown
notes: human SCOC, SwissProt entry Q9UIL1 isoform 1, residues 78-159, with N125L and N132V; linker between SCOC and the Strep-tag, as in the wild-type construct; Tetramer by SEC-MALLS and native MS; also called tetrameric core mutant; double core mutant N125L/N132V; source: E. coli BL21 (DE3), purified (StrepTrap, Superdex 75); also co-expressed with FEZ1(227-290) in E. coli
B3: C-terminal Strep-tagged SCOC(78-159), wild type (domain or fragment)
chain: not shown
notes: human short coiled coil protein (SCOC), SwissProt entry Q9UIL1 isoform 1, residues 78-159; underlined stretch of the printed construct; linker between SCOC and the Strep-tag in the printed construct; Dimer by SEC-MALLS and native MS; also called short coiled coil protein; Strep-SCOC(78-159); source: E. coli BL21 (DE3), purified (StrepTrap, Superdex 75); also co-expressed with FEZ1(227-290) in E. …
B4: Strep-tagged SCOC(78-159) R99E (domain or fragment)
chain: not shown
notes: human SCOC, SwissProt entry Q9UIL1 isoform 1, residues 78-159, with R99E; linker between SCOC and the Strep-tag, as in the wild-type construct; also called R99E surface mutant; source: E. coli BL21 (DE3), purified (StrepTrap, Superdex 75); also co-expressed with FEZ1(227-290) in E. coli
B5: Strep-tagged SCOC(78-159) R117E (domain or fragment)
chain: not shown
notes: human SCOC, SwissProt entry Q9UIL1 isoform 1, residues 78-159, with R117E; linker between SCOC and the Strep-tag, as in the wild-type construct; also called R117E surface mutant; source: E. coli BL21 (DE3), purified (StrepTrap, Superdex 75); also co-expressed with FEZ1(227-290) in E. coli
B6: Selenomethionine-labelled Strep-tagged L105M SCOC(78-159) (domain or fragment)
chain: not shown
modifications: selenomethionine-labelled
notes: human SCOC, SwissProt entry Q9UIL1 isoform 1, residues 78-159, with L105M; linker between SCOC and the Strep-tag, as in the wild-type construct; Crystallised by in situ proteolysis with subtilisin (1:2000 w/w), so the chain in the crystal may be shorter; the final model comprises residues 86-147 and the Strep-tag is not visible in the electron density; also called L105M SCOC mutant; SCOC_(78-159) …

The first series concerns the molecule itself. In words: SEC-MALLS; SCOC constructs alone; 500 µL of 1.5 mg/ml on Superdex 200 10/300 GL; three measurements for each protein.
Turning to B1, the “stoichiometry N” value was determined as 3.
Still for that read-out and setting: next, B2: 4; B3: 2; B4: 2.
B5: the “stoichiometry N” value turned out to be 2.

The next series deals with the molecule itself. Put plainly: crystal structure; selenomethionine-labelled L105M SCOC(78-159), 3 mg/ml, with subtilisin 1:2000 (w/w) for in situ proteolysis; hanging drops, 20 °C, 100 mM sodium acetate pH 4.6, 0.7 M 1,6-hexanediol, 10 mM CoCl2.
On to B6, for which the binding result is reported as “binds”.
